Data reported in patent publication US20210069342A1 (LEGOCHEM BIOSCIENCES, published 2021).

Tests used:
[1] = biological target: T1, human ROR1 expressed on the cell surface (human, UniProt Q01973 30-937); assay: flow cytometry on 697 cells (ALL), C2E3 IgG, FITC anti-human Fc detection
T1 construct: whole, on cells; also called cell surface-expressed ROR1 antigen; ROR1 on JeKo-1, Mino, CHO-human ROR1, MC38-human ROR1 and other cancer cell lines
Description: (§1) FACS analysis (FACSCalibur, BD Biosciences) was used to analyze the binding of the anti-ROR1 antibody of the present invention to ROR1 in the above cell lines.
(§2) Specifically, the respective cell lines were dissociated and washed in PBS, then the numbers of cells were counted and adjusted to 2×10⁵ cells/200 PBS. Then, they were treated with 10 /mL of the antibody of clone name C2E3 of the ROR1 monoclonal antibodies prepared in Embodiment 3, and reacted for 1 hour at 4° C. After the reaction, the cells were washed in PBS, then FITC-marked constant region (Fc) specific antibody (Goat anti-human IgG FITC conjugate, Fc specific, Sigma, F9512, concentration 20 mg/ml) was suspended in 2 /1×10⁵ cells/200 PBS and reacted for 1 hour at 4° C. After reacting, the cells were washed with PBS and analyzed with the FACSCalibur equipment. The negative control was only treated with FITC-marked constant region (Fc) specific antibody. To compare the degree of ROR1 expression among the respective cancer cell lines, the quotient of dividing the shifted readings for the experimental group treated with the ROR1 monoclonal antibody (C2E3) of the present invention by the shifted readings for the control group (MFI Ratio: MFI of anti-ROR1/MFI or 2nd Ab) is indicated.

[2] = biological target: T1, human ROR1 expressed on the cell surface; assay: flow cytometry on Jurkat cells (T cell leukemia), C2E3 IgG, FITC anti-human Fc detection
Description: as §1, §2

[3] = biological target: T1, human ROR1 expressed on the cell surface; assay: flow cytometry on Kasumi-2 cells (ALL), C2E3 IgG, FITC anti-human Fc detection
Description: as §1, §2

[4] = biological target: T1, human ROR1 expressed on the cell surface; assay: flow cytometry on MDA-MB-231 cells (breast cancer), C2E3 IgG, FITC anti-human Fc detection
Description: as §1, §2

[5] = biological target: T1, human ROR1 expressed on the cell surface; assay: flow cytometry on SNU-1750 cells (gastric cancer), C2E3 IgG, FITC anti-human Fc detection
Description: as §1, §2

[6] = biological target: T1, human ROR1 expressed on the cell surface; assay: flow cytometry on AGS cells (gastric cancer), C2E3 IgG, FITC anti-human Fc detection
Description: as §1, §2

[7] = biological target: T2, human ROR2 over-expressed on CHO cells (CHO-human ROR2) (human, UniProt Q01974 34-943); assay: flow cytometry on CHO-S cells transiently over-expressing human ROR2, FITC anti-human Fc detection, MFI ratio to 2nd Ab alone
T2 construct: whole, on cells; Negative control; also called family protein human ROR2
T2 sequence (Q01974 34-943): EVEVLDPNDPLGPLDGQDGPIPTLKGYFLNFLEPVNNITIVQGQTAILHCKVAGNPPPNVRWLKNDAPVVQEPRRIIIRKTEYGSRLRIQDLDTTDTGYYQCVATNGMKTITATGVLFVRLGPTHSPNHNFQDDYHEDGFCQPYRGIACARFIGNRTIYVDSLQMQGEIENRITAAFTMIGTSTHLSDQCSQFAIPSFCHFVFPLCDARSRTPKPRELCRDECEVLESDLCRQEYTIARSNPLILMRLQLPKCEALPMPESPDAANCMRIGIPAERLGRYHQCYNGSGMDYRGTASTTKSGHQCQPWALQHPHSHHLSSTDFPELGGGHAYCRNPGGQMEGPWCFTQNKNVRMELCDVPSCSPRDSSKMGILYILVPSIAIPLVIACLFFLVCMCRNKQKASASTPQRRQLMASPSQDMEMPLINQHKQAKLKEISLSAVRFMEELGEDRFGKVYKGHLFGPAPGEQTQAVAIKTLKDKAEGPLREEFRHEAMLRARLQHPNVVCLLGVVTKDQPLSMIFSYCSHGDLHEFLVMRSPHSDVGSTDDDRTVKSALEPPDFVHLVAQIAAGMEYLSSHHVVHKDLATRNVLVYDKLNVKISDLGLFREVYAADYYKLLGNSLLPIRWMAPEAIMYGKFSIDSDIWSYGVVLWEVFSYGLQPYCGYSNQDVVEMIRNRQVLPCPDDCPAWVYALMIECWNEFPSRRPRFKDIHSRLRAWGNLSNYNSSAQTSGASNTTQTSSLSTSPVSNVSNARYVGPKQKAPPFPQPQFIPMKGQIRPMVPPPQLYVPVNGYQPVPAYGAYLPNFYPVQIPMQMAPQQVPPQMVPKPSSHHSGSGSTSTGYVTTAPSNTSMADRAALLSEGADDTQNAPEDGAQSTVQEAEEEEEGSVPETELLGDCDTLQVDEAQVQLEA
Text: For this experiment, using cell lines (FIG. 5 and FIG. 7, respectively) transiently (CHO-human ROR1, CHO-human ROR2, CHO-mouse ROR1) or stably (MC38-human ROR1) transfected with ROR1 gene to achieve artificial over-expression of ROR1 protein, an ROR1-expressing cell line (JeKo-1, Mino) (FIG. 6), a non ROR1-expressing cell line (MCF7) (FIG. 6) and a FACSCalibur (BD Biosciences) device was used to measure the degree to which anti-ROR1 antibody and ROR1 were bound, as follows. […] JeKo-1, Mino, CHO-human ROR1, CHO-mouse ROR1 and MC38-human ROR1 are all cell lines which express human ROR1 or mouse ROR1.
Specifically, after dissociating each cell line and washing in PBS, the number of cells was counted and adjusted to 2×10⁵ cells/200 PBS. Then the respective ROR1 monoclonal antibodies prepared in Embodiment 3 were diluted 5 times from 10 /mL or 10 /mL, then reacted for 1 hour at 4° C. After the reaction, the cells were washed in PBS, then FITC-marked constant region (Fc) specific antibody (Goat anti-human IgG FITC conjugate, Fc specific, Sigma, F9512, concentration 20 mg/ml) was suspended in 2 /1×10⁵ cells/200 PBS and reacted for 1 hour at 4° C. As for identification of the degree of expression of the transiently over-expressed human ROR1, human ROR2 and mouse ROR1, a commercially available FACS analysis antibody (anti-ROR1: R&D Systems, FAB 2000G, anti-ROR2: R&D, FAB20641P) was used. After reacting the cells were washed in PBS and analyzed using a FACSCalibur device. The negative control (2nd Ab) was only treated with FITC-marked constant region (Fc) specific antibody. The shifted readings for the respective experimental groups treated with ROR1 monoclonal antibody were compared against the shifted reading for the control group (MFI Ratio: MFI of anti-ROR1/MFI of 2nd Ab).

[8] = biological target: T1, human ROR1 expressed on the cell surface; assay: flow cytometry on Calu-6 cells (lung cancer), C2E3 IgG, FITC anti-human Fc detection
Description: as §1, §2

[9] = biological target: T1, human ROR1 expressed on the cell surface; assay: flow cytometry on BT20 cells (breast cancer), C2E3 IgG, FITC anti-human Fc detection
Description: as §1, §2

[10] = biological target: T1, human ROR1 expressed on the cell surface; assay: flow cytometry on BT474 cells (breast cancer), C2E3 IgG, FITC anti-human Fc detection
Description: as §1, §2

[11] = biological target: T1, human ROR1 expressed on the cell surface; assay: flow cytometry on HCC70 cells (breast cancer), C2E3 IgG, FITC anti-human Fc detection
Description: as §1, §2

[12] = biological target: T1, human ROR1 expressed on the cell surface; assay: flow cytometry on HT29 cells (colon cancer), C2E3 IgG, FITC anti-human Fc detection
Description: as §1, §2

[13] = biological target: T1, human ROR1 expressed on the cell surface; assay: flow cytometry on HCC1187 cells (breast cancer), C2E3 IgG, FITC anti-human Fc detection
Description: as §1, §2

[14] = biological target: T1, human ROR1 expressed on the cell surface; assay: flow cytometry on MDA-MB-468 cells (breast cancer), C2E3 IgG, FITC anti-human Fc detection
Description: as §1, §2

T1 sequence (Q01973 30-937): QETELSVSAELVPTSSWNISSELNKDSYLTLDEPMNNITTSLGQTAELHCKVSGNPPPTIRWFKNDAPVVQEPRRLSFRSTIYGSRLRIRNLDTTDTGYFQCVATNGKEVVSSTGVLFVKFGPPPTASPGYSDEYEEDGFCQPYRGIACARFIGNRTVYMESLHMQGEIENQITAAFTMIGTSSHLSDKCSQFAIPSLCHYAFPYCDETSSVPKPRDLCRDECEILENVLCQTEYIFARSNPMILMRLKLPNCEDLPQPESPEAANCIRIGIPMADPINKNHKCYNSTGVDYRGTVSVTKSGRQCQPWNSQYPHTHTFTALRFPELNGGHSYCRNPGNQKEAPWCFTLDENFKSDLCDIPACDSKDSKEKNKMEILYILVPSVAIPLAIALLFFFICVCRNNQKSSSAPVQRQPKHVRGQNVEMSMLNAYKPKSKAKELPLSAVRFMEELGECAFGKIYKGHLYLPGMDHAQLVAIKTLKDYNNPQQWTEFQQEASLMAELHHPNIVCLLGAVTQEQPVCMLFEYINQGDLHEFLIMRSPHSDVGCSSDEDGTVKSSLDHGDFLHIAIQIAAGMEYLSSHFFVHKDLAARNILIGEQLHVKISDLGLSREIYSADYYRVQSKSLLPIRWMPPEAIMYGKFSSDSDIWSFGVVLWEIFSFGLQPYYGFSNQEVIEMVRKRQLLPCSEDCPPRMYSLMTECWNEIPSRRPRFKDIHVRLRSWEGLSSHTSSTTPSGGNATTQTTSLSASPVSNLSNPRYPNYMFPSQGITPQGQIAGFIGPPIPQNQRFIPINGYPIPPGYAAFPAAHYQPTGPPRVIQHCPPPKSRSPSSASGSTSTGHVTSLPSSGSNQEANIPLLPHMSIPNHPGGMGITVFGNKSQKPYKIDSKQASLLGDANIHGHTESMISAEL

Mean Fold Ratio (MFI of anti-ROR1 / MFI of 2nd Ab) [1]: 12
Mean Fold Ratio (MFI of anti-ROR1 / MFI of 2nd Ab) [2]: 1.7
Mean Fold Ratio (MFI of anti-ROR1 / MFI of 2nd Ab) [3]: 11.5
Mean Fold Ratio (MFI of anti-ROR1 / MFI of 2nd Ab) [4]: 8.8
Mean Fold Ratio (MFI of anti-ROR1 / MFI of 2nd Ab) [5]: 3.9
Mean Fold Ratio (MFI of anti-ROR1 / MFI of 2nd Ab) [6]: 12.3
binding result [7]: no binding
Mean Fold Ratio (MFI of anti-ROR1 / MFI of 2nd Ab) [8]: 3.3
Mean Fold Ratio (MFI of anti-ROR1 / MFI of 2nd Ab) [9]: 3
Mean Fold Ratio (MFI of anti-ROR1 / MFI of 2nd Ab) [10]: 1.7
Mean Fold Ratio (MFI of anti-ROR1 / MFI of 2nd Ab) [12]: 3.9
Mean Fold Ratio (MFI of anti-ROR1 / MFI of 2nd Ab) [13]: 9.3
Mean Fold Ratio (MFI of anti-ROR1 / MFI of 2nd Ab) [14]: 6.4
B1: anti-ROR1 IgG antibody C2E3 (antibody, V domains shown)
VH: EVQLLESGGGLVQPGGSLRLSCAASGFTFSNYAMSWVRQAPGKGLEWVSSISHNSGSTYYADSVKGRFTISRDNSKNTLYLQMNSLRAEDTAVYYCAKFISARKSLGRSYSNGMDVWGQGTLVTVSS
VL: QSVLTQPPSASGTPGQRVTISCTGSSSNIGSNDVTWYQQLPGTAPKLLIYADSKRPSGVPDRFSGSKSGTSASLAISGLRSEDEADYYCGTWDYSLSGYVFGGGTKLTVLG
notes: Full IgG form (human IgG1 constant region, lambda light chain), expressed in CHO-S cells
Mean Fold Ratio (MFI of anti-ROR1 / MFI of 2nd Ab) [11]: 3.8
